Measurements published in US20120244171A1 (IMMUNOGEN, published 2012).

Target: human folate receptor 1 (human, UniProt P15328 25-234)
Test: cell-based or functional assay

Chain of human folate receptor 1 (P15328 25-234): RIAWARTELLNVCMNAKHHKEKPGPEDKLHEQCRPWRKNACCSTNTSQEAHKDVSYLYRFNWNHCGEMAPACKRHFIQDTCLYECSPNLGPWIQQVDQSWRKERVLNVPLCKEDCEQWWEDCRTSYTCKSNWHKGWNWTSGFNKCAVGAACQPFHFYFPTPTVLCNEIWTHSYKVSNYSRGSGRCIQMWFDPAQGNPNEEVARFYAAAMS

B1: huFOLR1-SPDB-1f conjugate (antibody, human IgG1, kappa, V domains shown)
VH: QVQLVQSGAEVVKPGASVKISCKASGYTFTGYFMNWVKQSPGQSLEWIGRIHPYDGDTFYNQKFQGKATLTVDKSSNTAHMELLSLTSEDFAVYYCTRYDGSRAMDYWGQGTTVTVSS
VL: DIVLTQSPLSLAVSLGQPAIISCKASQSVSFAGTSLMHWYHQKPGQQPRLLIYRASNLEAGVPDRFSGSGSKTDFTLTISPVEAEDAATYYCQQSREYPYTFGGGTKLEIKR
modifications: compound 1f linked through the SPDB linker; positions not given
- fold loss of cytotoxic potency when blocked with unconjugated antibody: 40 fold
- fold reduction of cytotoxic effect on KB cells by an excess of unconjugated huFOLR1 antibody: > 40 fold
- in vitro cytotoxicity IC50 on antigen positive KB cells: 0.055 nM
